Values quoted from earlier work, collected in publication PMC5938170.

Key:
[1] = molecular target: Met (Homo sapiens) (UniProt P08581)
[2] = molecular target: EGFR (Homo sapiens) (UniProt P00533)

Chain of UniProt P08581 (P08581 25-932): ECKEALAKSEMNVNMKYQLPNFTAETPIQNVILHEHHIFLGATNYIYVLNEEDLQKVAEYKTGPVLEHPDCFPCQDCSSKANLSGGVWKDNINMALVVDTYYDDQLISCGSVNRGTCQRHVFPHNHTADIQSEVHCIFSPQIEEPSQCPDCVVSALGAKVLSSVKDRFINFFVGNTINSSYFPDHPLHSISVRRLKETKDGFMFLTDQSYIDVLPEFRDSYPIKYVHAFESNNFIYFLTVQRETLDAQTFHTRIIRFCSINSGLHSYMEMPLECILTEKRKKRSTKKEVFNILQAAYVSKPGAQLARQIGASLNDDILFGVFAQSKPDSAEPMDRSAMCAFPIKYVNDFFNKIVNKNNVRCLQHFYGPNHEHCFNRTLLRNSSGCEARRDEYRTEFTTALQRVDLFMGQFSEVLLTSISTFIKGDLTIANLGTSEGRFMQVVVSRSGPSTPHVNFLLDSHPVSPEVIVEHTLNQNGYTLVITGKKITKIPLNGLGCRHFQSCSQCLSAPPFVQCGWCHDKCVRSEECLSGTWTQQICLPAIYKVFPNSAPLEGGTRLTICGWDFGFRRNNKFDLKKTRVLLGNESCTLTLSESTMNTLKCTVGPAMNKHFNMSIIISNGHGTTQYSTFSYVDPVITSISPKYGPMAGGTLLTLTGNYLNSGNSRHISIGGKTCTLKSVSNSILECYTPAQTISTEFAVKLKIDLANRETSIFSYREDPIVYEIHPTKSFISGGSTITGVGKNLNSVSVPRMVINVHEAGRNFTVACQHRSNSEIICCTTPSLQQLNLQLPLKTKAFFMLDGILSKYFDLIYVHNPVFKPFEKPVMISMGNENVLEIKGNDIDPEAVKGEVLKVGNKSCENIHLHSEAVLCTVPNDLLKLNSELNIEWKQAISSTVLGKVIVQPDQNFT

- Kd [1]: 2 nM
- Kd [2]: 75 nM
Substance: Decorin (from UniProt P07585)
